The results in this text go back to patent US20190241670A1 (BIOCON, published 2019).

This assay deals with T1, rhCD6FC/Chimera (R and D systems) (human, UniProt P30203 25-398).
T1 construct: Bought reagent (R and D systems), coated on the ELISA plate; also called CD6 receptor; Fc part of the bought chimera not given
T1 sequence (looked up): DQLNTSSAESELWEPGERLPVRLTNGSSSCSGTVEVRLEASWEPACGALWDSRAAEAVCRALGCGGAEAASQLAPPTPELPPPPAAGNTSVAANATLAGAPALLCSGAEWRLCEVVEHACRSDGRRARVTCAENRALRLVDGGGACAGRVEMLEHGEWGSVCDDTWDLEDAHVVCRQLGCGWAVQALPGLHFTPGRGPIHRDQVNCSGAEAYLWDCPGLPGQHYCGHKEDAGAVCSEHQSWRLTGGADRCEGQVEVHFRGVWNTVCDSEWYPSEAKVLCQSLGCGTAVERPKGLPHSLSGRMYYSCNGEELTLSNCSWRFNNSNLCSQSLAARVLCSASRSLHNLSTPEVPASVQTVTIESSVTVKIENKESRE
The assay can be described thus: ELISA, CD6-Fc coated plate, fixed T1h with varying ALCAM-Fc as competitor. How it is done:
When varying concentrations of ALCAM-Fc was incubated along with a fixed concentration of T1h in a CD6-Fc coated ELISA plate, T1h was detected at all concentration of ALCAM-Fc.
The rhCD6FC/Chimera (R and D systems) (100 ≈g/ml) was diluted in coating buffer and 100 ≈l was added to each well of a 96 well Nunc-Maxisorp plate. The plate was then incubated at 4éC overnight. The Plate was washed thrice with PBS Tween 20. Subsequently, 200 ≈l of blocking solution (2% BSA+0.1% Tween 20 in 1×PBS) was added and incubated for 1 hour at 37éC. After incubation, the plate was washed again with PBS Tween thrice, followed by the addition of T1h monoclonal antibody (0.2 mg/ml) and .rhA LCAMFc (R and D systems) at varying concentrations. This was then incubated for an hour at 37éC. The plate was washed 3 times subsequently with PBS Tween. To the wells 200 ≈l of anti human IgG (Fab)₂ ALP (1:20000) diluted in blocking buffer was added and incubated for 1 hour at 37éC. The plate was washed thrice with PBS tween and 200 ≈l of p-Nitrophenyl Phosphate (PNPP) substrate is added to each well and incubated at 37éC till color develops around 15 minutes. Reading was taken at 405 nm using a BIOTEK Micro Plate Reader.

B1: humanized IgG1 isotype anti-CD6 monoclonal antibody (T1h) (antibody, V domains shown)
VH: EVQLVESGGGLVKPGGSLKLSCAASGFKFSRYAMSWVRQAPGKRLEWVATISSGGSYIYYPDSVKGRFTISRDNVKNTLYLQMSSLRSEDTAMYYCARRDYDLDYFDSWGQGTLVTVSS
VL: DIQMTQSPSSLSASVGDRVTITCKASRDIRSYLTWYQQKPGKAPKTLIYYATSLADGVPSRFSGSGSGQDYSLTISSLESDDTATYYCLQHGESPFTLGSGTKLEIK
notes: also called humanized IOR-T1; Itolizumab
Consider B1, for which the binding result is on record as “binds”.
